Target: T1, Anti-PSMA Fab
T1 construct: also called 006 PSMA Fab
Assay: clonal phage ELISA; biotinylated PSMA Fab on neutravidin plate, blocking buffer alone; anti-M13 HRP detection;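 further: crude clonal phage supernatants added without washing to wells pretreated with blocking buffer with or without PSMA antigen, short incubation, then washed before detecting bound phage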
Procedure: (§1) Clonal phage were harvested as crude supernatants and screened via standard ELISAs. […] Prior to the addition of clonal phage. wells were incubated with blocking buffer and PSMA antigen or blocking buffer alone. Without washing or aspirating, clonal phage supernatants were then added to the wells and incubated for a short time. Wells were then washed followed by detection of bound phage using a horse radish conjugated anti-M13 antibody.

| Binder | Phage binding ELISA signal, Anti-PSMA Fab |
| --- | --- |
| SQHSCIPSWMCNGF [Phage-3695] | 1.45 |
| NEKLCVPTWMCDGL [Phage-3697] | 1.45 |
| ALSMCVPQWMCQGF [Phage-3690] | 1.46 |
| DVPYCIPSWMCHGF [Phage-3698] | 1.45 |
| MIAMCKPPWMCIGL [Phage-3687] | 1.47 |
| TVPRCVPAWMCNWS [Phage-3694] | 1.45 |
| VNERCIPDWMCVGF [Phage-3691] | 1.46 |
| VVVQCVPKWMCYGF [Phage-3688] | 1.47 |
| TMQMCKPAWMCSQL [Phage-3696] | 1.45 |
| DHMMCVPPWMCDGI [Phage-3692] | 1.46 |
| LPHACKPSWMCQGF [Phage-3689] | 1.47 |
| SEHYCVPNWMCAGL [Phage-3693] | 1.46 |

Target: T2, PSMA Fab (006 PSMA Fab)
T2 construct: also called Anti-PSMA Fab
Assay: clonal phage ELISA on captured PSMA Fab pre-incubated with PSMA antigen as competitor;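 further: crude clonal phage supernatants added to wells without washing away the PSMA competitor, bound phage detected by HRP-conjugated anti-M13 antibody, reference wells received blocking buffer only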
Procedure: as §1

| Binder | Phage binding ELISA signal, Anti-PSMA Fab with PSMA antigen |
| --- | --- |
| PHVVCIPEWMCAGF [Phage-3681] | 0.068 |
| MIKMCKPYWMCEAM [Phage-3679] | 0.0794 |
| GTMKCEPAWMCEGF [Phage-3674] | 0.106 |
| VIPKCEPKWMCHSL [Phage-3678] | 0.0649 |
| YTVQCVPTWMCAGL [Phage-3680] | 0.0609 |
| STSWCSPPWMCEGF [Phage-3683] | 0.0631 |
| LGKICSPAWMCSGF [Phage-3673] | 0.0608 |
| LVKHCVPDWMCSGF [Phage-3677] | 0.101 |
| DERMCRPAWMCEGL [Phage-3682] | 0.102 |
| ADMRCVPDWMCHGF [Phage-3686] | 0.0874 |
| ERPACVPMWMCTGL [Phage-3684] | 0.0929 |
| DAMMCKPTWMCDGF [Phage-3675] | 0.0662 |
| PEARCIPMWMCERL [Phage-3676] | 0.0885 |
| EMSLCIPAWMCSVF [Phage-3685] | 0.0677 |

Target: T3, PSMA Fab (006 PSMA Fab)
T3 construct: also called Anti-PSMA Fab; anti-PSMA Fab
Assay: clonal phage ELISA on captured PSMA Fab, wells pre-incubated with PSMA antigen as competitor
Procedure: as §1

| Binder | phage binding ELISA signal on anti-PSMA Fab in presence of PSMA |
| --- | --- |
| IDRHCTPSWMCYGF [Phage-3658 (Peptide-180 library clone)] | 0.0562 |
| ETSWCTPSWMCTGF [Phage-3656 (Peptide-180 library clone)] | 0.0752 |
| SMIYCIPSWMCEGM [Phage-3657 (Peptide-180 library clone)] | 0.0844 |
| VQILCRPQWMCEGL [Phage-3653 (Peptide-180 library clone)] | 0.0669 |
| VERMCEPLWMCAGL [Phage-3655 (Peptide-180 library clone)] | 0.0832 |
| LALACVPPWMCQGL [Phage-3654 (Peptide-180 library clone)] | 0.0897 |

Target: T4, PSMA Fab (006 PSMA Fab) (biotinylated (site not stated))
T4 construct: also called Anti-PSMA Fab
Assay: as above

| Binder | Phage binding ELISA signal, Anti-PSMA Fab in presence of PSMA |
| --- | --- |
| DHKLCKPEWMCAGL [Phage-3659 (peptide-180 library clone)] | 0.0672 |
| GHVYCEPQWMCYGF [Phage-3669 (peptide-180 library clone)] | 0.0791 |
| AAKYCEPSWMCYGF [Phage-3672 (peptide-180 library clone)] | 0.105 |
| PELRCHPPWMCTGF [Phage-3670 (peptide-180 library clone)] | 0.0997 |
| MVSHCVPLWMCAGF [Phage-3660 (peptide-180 library clone)] | 0.0616 |
| ISIKCEPQWMCDGL [Phage-3671 (peptide-180 library clone)] | 0.307 |
| YIQACKPRWMCNGF [Phage-3667 (peptide-180 library clone)] | 0.0874 |
| LQVLCVPDWMCAGF [Phage-3668 (peptide-180 library clone)] | 0.091 |
| ESRFCVPAWMCAAV [Phage-3665 (peptide-180 library clone)] | 0.089 |
| PVPYCRPIWMCQGL [Phage-3664 (peptide-180 library clone)] | 0.0736 |
| VAIACTPMWMCTGF [Phage-3661 (peptide-180 library clone)] | 0.113 |
| HVAACVPSWMCTGF [Phage-3662 (peptide-180 library clone)] | 0.0842 |
| EVRRCEPSWMCSVV [Phage-3666 (peptide-180 library clone)] | 0.0749 |
| EGPLCKPAWMCRGF [Phage-3663 (peptide-180 library clone)] | 0.0963 |

Target: T1, Anti-PSMA Fab
Assay: clonal phage ELISA; biotinylated PSMA Fab on neutravidin plate, wells pre-incubated with PSMA antigen as competitor; anti-M13 HRP detection;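 further: crude clonal phage supernatants added to antigen-treated wells without a wash, incubated briefly, then bound phage read out via horse radish–conjugated anti-M13 antibody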
Procedure: as §1

| Binder | Phage binding ELISA signal, Anti-PSMA Fab in presence of PSMA |
| --- | --- |
| SQHSCIPSWMCNGF [Phage-3695] | 0.154 |
| NEKLCVPTWMCDGL [Phage-3697] | 0.0612 |
| ALSMCVPQWMCQGF [Phage-3690] | 0.0597 |
| DVPYCIPSWMCHGF [Phage-3698] | 0.249 |
| MIAMCKPPWMCIGL [Phage-3687] | 0.0954 |
| TVPRCVPAWMCNWS [Phage-3694] | 0.0917 |
| VNERCIPDWMCVGF [Phage-3691] | 0.0649 |
| VVVQCVPKWMCYGF [Phage-3688] | 0.0764 |
| TMQMCKPAWMCSQL [Phage-3696] | 0.0765 |
| DHMMCVPPWMCDGI [Phage-3692] | 0.119 |
| LPHACKPSWMCQGF [Phage-3689] | 0.0636 |
| SEHYCVPNWMCAGL [Phage-3693] | 0.0995 |

Target: T3, PSMA Fab (006 PSMA Fab)
Assay: clonal phage ELISA on biotinylated PSMA Fab captured on neutravidin, blocking buffer alone, anti-M13 HRP detection;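 further: clonal phage were tested as crude supernatants, and the signal reflects phage still bound to the wells after washing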
Procedure: as §1

| Binder | phage binding ELISA signal on anti-PSMA Fab |
| --- | --- |
| IDRHCTPSWMCYGF [Phage-3658 (Peptide-180 library clone)] | 1.5 |
| ETSWCTPSWMCTGF [Phage-3656 (Peptide-180 library clone)] | 1.5 |
| SMIYCIPSWMCEGM [Phage-3657 (Peptide-180 library clone)] | 1.5 |
| VQILCRPQWMCEGL [Phage-3653 (Peptide-180 library clone)] | 1.5 |
| VERMCEPLWMCAGL [Phage-3655 (Peptide-180 library clone)] | 1.5 |
| LALACVPPWMCQGL [Phage-3654 (Peptide-180 library clone)] | 1.5 |

Target: T2, PSMA Fab (006 PSMA Fab)
Assay: clonal phage ELISA on biotinylated PSMA Fab captured on neutravidin plates, anti-M13 HRP detection;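 further: crude clonal phage supernatants tested, before phage were added, wells were pretreated with PSMA antigen in blocking buffer or with blocking buffer only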
Procedure: as §1

| Binder | Phage binding ELISA signal, Anti-PSMA Fab |
| --- | --- |
| PHVVCIPEWMCAGF [Phage-3681] | 1.47 |
| MIKMCKPYWMCEAM [Phage-3679] | 1.48 |
| GTMKCEPAWMCEGF [Phage-3674] | 1.48 |
| VIPKCEPKWMCHSL [Phage-3678] | 1.48 |
| YTVQCVPTWMCAGL [Phage-3680] | 1.47 |
| STSWCSPPWMCEGF [Phage-3683] | 1.47 |
| LGKICSPAWMCSGF [Phage-3673] | 1.48 |
| LVKHCVPDWMCSGF [Phage-3677] | 1.48 |
| DERMCRPAWMCEGL [Phage-3682] | 1.47 |
| ADMRCVPDWMCHGF [Phage-3686] | 1.47 |
| ERPACVPMWMCTGL [Phage-3684] | 1.47 |
| DAMMCKPTWMCDGF [Phage-3675] | 1.48 |
| PEARCIPMWMCERL [Phage-3676] | 1.48 |
| EMSLCIPAWMCSVF [Phage-3685] | 1.47 |

Target: T4, PSMA Fab (006 PSMA Fab)
Assay: as above
Procedure: as §1

| Binder | Phage binding ELISA signal, Anti-PSMA Fab |
| --- | --- |
| DHKLCKPEWMCAGL [Phage-3659 (peptide-180 library clone)] | 1.5 |
| GHVYCEPQWMCYGF [Phage-3669 (peptide-180 library clone)] | 1.49 |
| AAKYCEPSWMCYGF [Phage-3672 (peptide-180 library clone)] | 1.48 |
| PELRCHPPWMCTGF [Phage-3670 (peptide-180 library clone)] | 1.49 |
| MVSHCVPLWMCAGF [Phage-3660 (peptide-180 library clone)] | 1.49 |
| ISIKCEPQWMCDGL [Phage-3671 (peptide-180 library clone)] | 1.48 |
| YIQACKPRWMCNGF [Phage-3667 (peptide-180 library clone)] | 1.49 |
| LQVLCVPDWMCAGF [Phage-3668 (peptide-180 library clone)] | 1.49 |
| ESRFCVPAWMCAAV [Phage-3665 (peptide-180 library clone)] | 1.49 |
| PVPYCRPIWMCQGL [Phage-3664 (peptide-180 library clone)] | 1.49 |
| VAIACTPMWMCTGF [Phage-3661 (peptide-180 library clone)] | 1.49 |
| HVAACVPSWMCTGF [Phage-3662 (peptide-180 library clone)] | 1.49 |
| EVRRCEPSWMCSVV [Phage-3666 (peptide-180 library clone)] | 1.49 |
| EGPLCKPAWMCRGF [Phage-3663 (peptide-180 library clone)] | 1.49 |
